This is an account of results in patent US20180128830A1, “DETECTION OF HUMAN CYTOMEGALOVIRUS IN BREAST CANCER” (priority 2015, published 2018).

Test [1] concerns MDA-MB-231 cells. Description: DNA synthesis, BrdU Cell Proliferation ELISA. Format: cell-based, human. As to conditions: 100 ng/ml, vs control. On the procedure:
(§1) Cells were seeded into 96-well dishes at a density of 1×10^4 cell per well in complete medium with varying doses of cmvIL-10, and then cell viability measured at the indicated time points using the Cell Titer Glo Assay kit according to manufacturer's instructions (Promega). DNA synthesis was measured in cells prepared in the same way using the BrdU Cell Proliferation ELISA Kit (Roche, Basel, Switzerland). For experiments using inhibitors, cells were cultivated in 96-well dishes as above with a final concentration of 10 μM inhibitor and BrdU incorporation evaluated after 72 hrs. For cell counts, cells were seeded into 6-well plates at a density of 2×10^5 cells per well, harvested via trypsinization, and counted using a hemacytometer at the indicated time points. The TACS Annexin V-FITC Detection Kit (Trevigen, Gaithersburg, Md.) was used to stain cells harvested from 70% confluent T75 flasks that had been treated with 100 μM etoposide for 48 hrs in the presence or absence of 100 ng/ml cmvIL-10. Cells were then analyzed via flow cytometry to detect fluorescence. For viability assays, Cell Titer Glo reagent was utilized to quantify cells that had been seeded into 96-well dishes at a density of 1×10^4 cell per well in complete medium with varying doses of etoposide in the presence or absence of 100 ng/ml cmvIL-10 as indicated
(In general: In an ELISA, binding on a coated surface is turned into a signal by an enzyme label.)

The test system of test [2] is MDA-MB-231 cells. Briefly: Cell proliferation, Cell Titer Glo. It counts as cell-based, human. On the procedure: as §1
On the technique in general: ATP-based viability assays read luminescence as a measure of living cells.

For a further test, the system named is HEK293 cells. Description: Transwell migration toward CXCL12. Format: cell-based, human. To be noted: 0.1 μg/ml cmvIL-10 in lower chamber, 4 hours. On the procedure: Transwell migration assays were performed by suspending cells at a density of 5×10^4 cells/ml in migration media (MEM or RPMI […] media plus 0.5% FBS). A total of 75 μl of cells was placed onto the upper chamber of a 96-well transwell system with 5.0 μm pores (Corning-Costar, Corning, N.Y.). The lower chamber contained 235 μl of migration media with CXCL12 plus or minus cmvIL-10 as indicated. Plates were incubated for four hours at 37° C., and then cells that traversed through the filter into the lower chamber were quantified via the addition of CellTitre-Glo reagent (Promega, Madison, Wis.) according to manufacturer's instructions.

Test [3] has as its system MDA-MB-231 cells. Briefly: Matrigel invasion toward EGF. Format: cell-based, human. As to conditions: 100 ng/ml, 22 hours. On the procedure:
Transwell migration was monitored using 96-well BD Fluoroblock plates with 8 μm filters (Corning, Inc., Corning, N.Y.). Cells were harvested and suspended at density of 2.0×10^6 cells/ml in migration media (L-15+1% FBS), and a volume of 75 μl cell suspension was placed on top of the filter inserts. Where indicated, IL-10R neutralizing antibody was added at a concentration of 30 μg/ml. […] After 5 hrs at 37° C., cells that traversed the filter and entered the lower chamber were quantified by the addition of Cell Titer Glo (Promega, Madison, Wis.) using a Turner Veritas luminometer. For invasion, 96-well matrigel-coated BD Fluoroblock transwell invasion plates (Corning) were used. Invasion plates were re-hydrated with warm media at 37° C. for 3 hrs and then 75 μl cell suspension loaded onto the hydrated filters as described above. Where indicated, 10 μM Stat3 inhibitor was included with cells in the top chamber; cmvIL-10, hIL-10 or conditioned medium was present in both chambers. […] At harvest, cells that had degraded the matrigel and entered the lower chamber were quantified by the addition of Cell Titer Glo as above.

A further test concerns the target T1, CXCR4 (Homo sapiens, UniProt P61073).
T1 construct: HEK293 cells, which endogenously express both CXCR4 and IL-10R; endogenous in cells; host or cells: HEK293
Description: Calcium flux assay in HEK293 cells. It counts as cell-based. The protocol: Calcium flux assays were performed as described (Arnolds K L, et al. Virology 439:122-131.). Briefly, cells were resuspended in 2 mls calcium assay buffer (RPMI with 25 mM of HEPES) at a density of 5×10^5 cells/ml per sample. Each sample was labeled with 2 μl of Fluo-4AM (Invitrogen, Grand Island, N.Y.), wrapped in foil, at 37° C. for 30 minutes with agitation at 10-minute intervals. Following incubation, each sample was pelleted, resuspended in calcium assay buffer, and transferred into an eppendorf tube for flow cytometry using the BD C6 Accuri. Fluorescence intensity of each sample was measured for 20 seconds to establish baseline, then stimulus (CXCL12, in the presence or absence of cmvIL-10, as indicated) was added via micropipetting directly into the sample while fluorescence intensity was measured. Kinetic fluorescence intensity analysis was performed with FlowJo software v9.4.9 (FlowJo, Ashland, Oreg.). Purified recombinant cmvIL-10 was purchased from R&D Systems (Minneapolis, Minn.) and purified recombinant CXCL12 was purchased from Peprotech (Rocky Hill, N.J.). For each calcium flux assay, ionomycin (Sigma) was a positive control for Fluo-4AM loading and PBS served as a negative control for the addition of stimulus.

In the next test the test system is Stat1. Description: Western blot for Stat1 phosphorylation in MDA-MB-231 cells. As to conditions: 100 ng/ml, 15 min. Format: cell-based, human. The protocol:
For western blotting, cells were treated with 100 ng/ml cmvIL-10, hIL-10, IFNγ or PBS for 15 min, then harvested into cell lysis buffer (150 mM NaCl, 20 mM HEPES, 0.5% Triton-X-100, 1 mM NaOV4, 1 mM EDTA, 0.1% NaN3). Lysates were clarified, proteins were separated via SDS-PAGE, and then transferred to a nitrocellulose membrane. Then membrane was incubated in blocking solution (5% milk+1×TBS-T) for 1 hr, then probed with primary antibody at a 1:1000 dilution (total Stat3 or pStat3, total Stat1 or pStat1) in blocking solution overnight at 4° C. After washing, the membranes were incubated with a 1:2000 dilution of appropriate AP-conjugated secondary antibody and bands were detected using Western Blue stabilized AP substrate (Promega, Madison, Wis.). For analysis of secreted proteins, supernatants were collected at various time points, analyzed by SDS-PAGE and then immunoblotted as above for cmvIL-10, hIL-10, or serpin E1/PAI.
For orientation: Immunoblotting shows a protein as a band on a membrane.

For test [4], the system named is MDA-MB-231 cells. Description: Apoptosis, Annexin V-FITC flow cytometry. Format: cell-based, human. To be noted: 100 ng/ml cmvIL-10 plus 100 μM etoposide, 48 hrs. On the procedure: as §1

T1 sequence (P61073 whole entry): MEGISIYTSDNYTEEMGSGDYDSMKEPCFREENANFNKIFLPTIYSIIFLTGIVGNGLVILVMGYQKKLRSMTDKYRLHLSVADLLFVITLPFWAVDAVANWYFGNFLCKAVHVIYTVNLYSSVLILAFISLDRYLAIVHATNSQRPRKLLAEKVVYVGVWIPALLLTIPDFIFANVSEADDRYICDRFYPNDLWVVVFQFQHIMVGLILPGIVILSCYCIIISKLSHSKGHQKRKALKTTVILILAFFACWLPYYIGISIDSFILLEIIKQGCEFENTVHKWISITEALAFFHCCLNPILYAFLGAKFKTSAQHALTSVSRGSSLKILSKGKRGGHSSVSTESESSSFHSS

B1: cmvIL-10 (protein)
chain: ATTTTIKNTKPQCRPEDYATRLQDLRVTFHRVKPTLQREDDYSVWLDGTVVKGCWGCSVMDWLLRRYLEIVFPAGDHVYPGLKTELHSMRSTLESIYKDMRQCPLLGCGDKSVISRLSQEAERKSDNGTRKGLSELDTLFSRLEEYLHSRK
As to B1, the “rate of DNA synthesis (BrdU incorporation)” value in the test with MDA-MB-231 cells [1] is given as “significantly higher”. The “cell growth (cell viability, RLU)” value in the test with MDA-MB-231 cells [2] (100 ng/ml, 72 hrs) was “significantly higher cell growth than control cultures”. Further, the “cell growth (cell viability, RLU)” value with MDA-MB-231 cells [2] (increasing doses of cmvIL-10) is reported as “greater growth than control cells”. Also, the “migration toward CXCL12” value with HEK293 cells was “significantly increased”. In addition, in the test on MDA-MB-231 cells [3], the “invasion through matrigel compared with hIL-10” value is “significantly greater extent than hIL-10” and the “invasion through matrigel toward EGF” value is “strong enhancer of cell invasion”. The “peak fluorescence intensity of calcium mobilization” value with CXCR4 (CXCL12 0.1 μg/ml plus cmvIL-10 0.1 μg/ml) is “significantly higher”. In addition, the calcium mobilization result with CXCR4 (cmvIL-10 alone) is listed as “did not induce calcium mobilization”. In the test with Stat1, the Stat1 phosphorylation entry is “did not globally activate other cellular effectors, such as Stat1”. Also, the “cells stained positive for Annexin V” value in the test on MDA-MB-231 cells [4] is given as 14.8%.
